According to PMC5482573:

Target: COPI coat leaf (one coatomer complex with two Arf1 molecules) assembled on vesicle membranes (M. musculus | S. cerevisiae) (UniProt Q8CIE6)
Experiment: cryo-EM structure; COPI coated vesicles with GTPγS incubated 15–20 min with a 10 molar excess of ArfGAP2; subtomogram averaging, difference map and classification; class with ArfGAP2 at 10.1 Å

Chain of R. norvegicus ArfGAP2, full-length, N-terminally His-tagged (Q3MID3 whole entry): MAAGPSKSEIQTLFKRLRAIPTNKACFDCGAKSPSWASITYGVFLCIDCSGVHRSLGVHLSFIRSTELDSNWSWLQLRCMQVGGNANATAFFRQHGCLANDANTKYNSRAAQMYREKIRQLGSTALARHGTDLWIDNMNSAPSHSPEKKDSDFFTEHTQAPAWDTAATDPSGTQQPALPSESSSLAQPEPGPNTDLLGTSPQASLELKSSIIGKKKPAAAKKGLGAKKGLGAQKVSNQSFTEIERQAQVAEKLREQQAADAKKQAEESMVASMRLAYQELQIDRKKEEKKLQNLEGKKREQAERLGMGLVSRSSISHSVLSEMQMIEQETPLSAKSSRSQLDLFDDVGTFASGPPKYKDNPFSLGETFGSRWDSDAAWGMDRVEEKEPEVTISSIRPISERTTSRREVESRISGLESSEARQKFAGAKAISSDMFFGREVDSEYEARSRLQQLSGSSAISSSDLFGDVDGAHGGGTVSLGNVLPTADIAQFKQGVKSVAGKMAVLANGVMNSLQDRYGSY

share of the leaves in the class with bound ArfGAP2: 65%
Substance: R. norvegicus ArfGAP2, full-length, N-terminally His-tagged (from UniProt Q3MID3 1-520) (enzyme)
